From US20260242735A1 (UNIVERSIT T BASEL, published 2026)

Assays:
Test in all cases: flow cytometry, alanine scan
[1] = biological target: human CD33 G318A (human, UniProt P20138 18-364)
Description: (§1) An alanine scan on human CD33 was performed to the determine the residues on CD33 that are involved in binding to the antibodies investigated. […] Briefly, a mutation library of CD33 was created by high-throughput, site-directed mutagenesis. Each residue was individually mutated to alanine, with alanine codons mutated to serine. The mutant library was arrayed in 384-well microplates and transiently transfected into HEK293-T. Following transfection, cells were incubated with the indicated antibodies (IgG or Fab) at concentrations pre-determined using an independent immunofluorescence titration curve on wild type CD33. […] Binding of each antibody to each mutant clone was determined in duplicates. For each point, background fluorescence was subtracted from the raw data, which were then normalized to antibody reactivity with wild type CD33.
(§2) Critical residues for antibody binding (outlined in dark grey) were residues whose mutations led to a binding of the test Abs of less than 20%. Additional secondary residues (outlined in light grey) were identified that led to a binding of the test Abs of between 20 and 40% as compared to the wild type CD33.

[2] = biological target: human CD33 V361A (human, UniProt P20138 18-364)
Description: as §1, §2

[3] = biological target: human CD33 R362A (human, UniProt P20138 18-364)
Description: as §1, §2

[4] = biological target: human CD33 H339A (human, UniProt P20138 18-364)
Description: as §1, §2

[5] = biological target: human CD33 K352A (human, UniProt P20138 18-364)
Description: as §1, §2

[6] = biological target: human CD33 T354A (human, UniProt P20138 18-364)
Sequence of human CD33 T354A (P20138 18-364 T354A limits assumed): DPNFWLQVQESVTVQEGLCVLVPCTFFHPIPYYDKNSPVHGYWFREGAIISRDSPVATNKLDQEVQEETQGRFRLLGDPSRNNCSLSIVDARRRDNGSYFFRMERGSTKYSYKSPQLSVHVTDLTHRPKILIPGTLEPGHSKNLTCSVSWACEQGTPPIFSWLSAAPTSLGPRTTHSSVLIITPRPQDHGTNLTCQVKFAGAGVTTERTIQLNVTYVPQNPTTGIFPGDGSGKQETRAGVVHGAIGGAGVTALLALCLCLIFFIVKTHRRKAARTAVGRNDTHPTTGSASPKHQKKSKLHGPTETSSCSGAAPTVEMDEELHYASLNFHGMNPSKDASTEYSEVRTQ
Description: as §1, §2

[7] = biological target: human CD33 T320A (human, UniProt P20138 18-364)
Description: as §1, §2

[8] = biological target: human CD33 E333A (human, UniProt P20138 18-364)
Description: as §1, §2

[9] = biological target: human CD33 T356A (human, UniProt P20138 18-364)
Description: as §1, §2

[10] = biological target: human CD33 A329S (human, UniProt P20138 18-364)
Sequence of human CD33 A329S (P20138 18-364 A329S limits assumed): as the sequence (P20138 18-364 T354A limits assumed) above, with A312S, A337T counted along it
Description: as §1, §2

[11] = biological target: human CD33 L343A (human, UniProt P20138 18-364)
Description: as §1, §2

[12] = biological target: human CD33 P319A (human, UniProt P20138 18-364)
Sequence of human CD33 P319A (P20138 18-364 P319A limits assumed): as the sequence (P20138 18-364 T354A limits assumed) above, with P302A, A337T counted along it
Description: as §1, §2

[13] = biological target: human CD33 E321A (human, UniProt P20138 18-364)
Description: as §1, §2

[14] = biological target: human CD33 N349A (human, UniProt P20138 18-364)
Description: as §1, §2

[15] = biological target: human CD33 P350A (human, UniProt P20138 18-364)
Description: as §1, §2

[16] = biological target: human CD33 G347A (human, UniProt P20138 18-364)
Description: as §1, §2

[17] = biological target: human CD33 N344A (human, UniProt P20138 18-364)
Sequence of human CD33 N344A (P20138 18-364 N344A limits assumed): as the sequence (P20138 18-364 T354A limits assumed) above, with N327A, A337T counted along it
Description: as §1, §2

[18] = biological target: human CD33 S324A (human, UniProt P20138 18-364)
Description: as §1, §2

[19] = biological target: human CD33 C325A (human, UniProt P20138 18-364)
Sequence of human CD33 C325A (P20138 18-364 C325A limits assumed): as the sequence (P20138 18-364 T354A limits assumed) above, with C308A, A337T counted along it
Description: as §1, §2

[20] = biological target: human CD33 D353A (human, UniProt P20138 18-364)
Description: as §1, §2

[21] = biological target: human CD33 H346A (human, UniProt P20138 18-364)
Description: as §1, §2

[22] = biological target: human CD33 P330A (human, UniProt P20138 18-364)
Description: as §1, §2

[23] = biological target: human CD33 D335A (human, UniProt P20138 18-364)
Sequence of human CD33 D335A (P20138 18-364 D335A limits assumed): as the sequence (P20138 18-364 T354A limits assumed) above, with D318A, A337T counted along it
Description: as §1, §2

[24] = biological target: human CD33 M348A (human, UniProt P20138 18-364)
Description: as §1, §2

[25] = biological target: human CD33 Y358A (human, UniProt P20138 18-364)
Sequence of human CD33 Y358A (P20138 18-364 Y358A limits assumed): as the sequence (P20138 18-364 T354A limits assumed) above, with A337T, Y341A counted along it
Description: as §1, §2

[26] = biological target: human CD33 S359A (human, UniProt P20138 18-364)
Description: as §1, §2

[27] = biological target: human CD33 S323A (human, UniProt P20138 18-364)
Sequence of human CD33 S323A (P20138 18-364 S323A limits assumed): as the sequence (P20138 18-364 T354A limits assumed) above, with S306A, A337T counted along it
Description: as §1, §2

[28] = biological target: human CD33 V332A (human, UniProt P20138 18-364)
Sequence of human CD33 V332A (P20138 18-364 V332A limits assumed): as the sequence (P20138 18-364 T354A limits assumed) above, with V315A, A337T counted along it
Description: as §1, §2

[29] = biological target: human CD33 A328S (human, UniProt P20138 18-364)
Description: as §1, §2

[30] = biological target: human CD33 T363A (human, UniProt P20138 18-364)
Description: as §1, §2

[31] = biological target: human CD33 S351A (human, UniProt P20138 18-364)
Description: as §1, §2

[32] = biological target: human CD33 T322A (human, UniProt P20138 18-364)
Description: as §1, §2

[33] = biological target: human CD33 S342A (human, UniProt P20138 18-364)
Sequence of human CD33 S342A (P20138 18-364 S342A limits assumed): as the sequence (P20138 18-364 T354A limits assumed) above, with S325A, A337T counted along it
Description: as §1, §2

[34] = biological target: human CD33 E337A (human, UniProt P20138 18-364)
Description: as §1, §2

[35] = biological target: human CD33 Y340A (human, UniProt P20138 18-364)
Description: as §1, §2

[36] = biological target: human CD33 E357A (human, UniProt P20138 18-364)
Sequence of human CD33 E357A (P20138 18-364 E357A limits assumed): as the sequence (P20138 18-364 T354A limits assumed) above, with A337T, E340A counted along it
Description: as §1, §2

[37] = biological target: human CD33 L338A (human, UniProt P20138 18-364)
Description: as §1, §2

[38] = biological target: human CD33 Q364A (human, UniProt P20138 18-363)
Sequence of human CD33 Q364A (P20138 18-364 Q364A limits assumed): as the sequence (P20138 18-364 T354A limits assumed) above, with A337T, Q347A counted along it
Description: as §1, §2

[39] = biological target: human CD33 S355A (human, UniProt P20138 18-364)
Sequence of human CD33 S355A (P20138 18-364 S355A limits assumed): as the sequence (P20138 18-364 T354A limits assumed) above, with A337T, S338A counted along it
Description: as §1, §2

[40] = biological target: human CD33 F345A (human, UniProt P20138 18-364)
Description: as §1, §2

[41] = biological target: human CD33 E360A (human, UniProt P20138 18-364)
Description: as §1, §2

[42] = biological target: human CD33 G327A (human, UniProt P20138 18-364)
Description: as §1, §2

[43] = biological target: human CD33 T331A (human, UniProt P20138 18-364)
Description: as §1, §2

[44] = biological target: human CD33 M334A (human, UniProt P20138 18-364)
Description: as §1, §2

[45] = biological target: human CD33 E336A (human, UniProt P20138 18-364)
Description: as §1, §2

[46] = biological target: human CD33 S326A (human, UniProt P20138 18-364)
Description: as §1, §2

[47] = biological target: human CD33 A341S (human, UniProt P20138 18-364)
Description: as §1, §2

Sequence of human CD33 K352A (P20138 18-364 K352A limits assumed): as the sequence (P20138 18-364 T354A limits assumed) above, with K335A, A337T counted along it

B1: Refmab #1 (antibody, V domains shown)
VH: EVQLVQSGAEVKKPGSSVKVSCKASGYTITDSNIHWVRQAPGQSLEWIGYIYPYNGGTDYNQKFKNRATLTVDNPTNTAYMELSSLRSEDTAFYYCVNGNPWLAYWGQGTLVTVSS
VL: DIQLTQSPSTLSASVGDRVTITCRASESLDNYGIRFLTWFQQKPGKAPKLLMYAASNQGSGVPSRFSGSGSGTEFTLTISSLQPDDFATYYCQQTKEVPWSFGQGTKVEVK
notes: The alanine scan used IgG or Fab; also called hP67.6
Mean % WT Binding [1]: 98.5 % of WT
Mean % WT Binding [2]: 88.8 % of WT
Mean % WT Binding [3]: 104 % of WT
Mean % WT Binding [4]: 76.7 % of WT
Mean % WT Binding [5]: 95.3 % of WT
Mean % WT Binding [6]: 91.8 % of WT
Mean % WT Binding [7]: 98.5 % of WT
Mean % WT Binding [8]: 77.9 % of WT
Mean % WT Binding [9]: 93.5 % of WT
Mean % WT Binding [10]: 88.1 % of WT
Mean % WT Binding [11]: 88.5 % of WT
Mean % WT Binding [12]: 83.9 % of WT
Mean % WT Binding [13]: 88.3 % of WT
Mean % WT Binding [14]: 92.3 % of WT
Mean % WT Binding [15]: 99 % of WT
Mean % WT Binding [16]: 85.1 % of WT
Mean % WT Binding [17]: 72.1 % of WT
Mean % WT Binding [18]: 97.8 % of WT
Mean % WT Binding [19]: 80.1 % of WT
Mean % WT Binding [20]: 94.7 % of WT
Mean % WT Binding [21]: 81.8 % of WT
Mean % WT Binding [22]: 98.6 % of WT
Mean % WT Binding [23]: 77.8 % of WT
Mean % WT Binding [24]: 83.3 % of WT
Mean % WT Binding [25]: 76.1 % of WT
Mean % WT Binding [26]: 95.8 % of WT
Mean % WT Binding [27]: 95.2 % of WT
Mean % WT Binding [28]: 107 % of WT
Mean % WT Binding [29]: 86.5 % of WT
Mean % WT Binding [30]: 91.4 % of WT
Mean % WT Binding [31]: 102 % of WT
Mean % WT Binding [32]: 104 % of WT
Mean % WT Binding [33]: 79.5 % of WT
Mean % WT Binding [34]: 91.1 % of WT
Mean % WT Binding [35]: 91.1 % of WT
Mean % WT Binding [36]: 98.7 % of WT
Mean % WT Binding [37]: 83.1 % of WT
Mean % WT Binding [38]: 72 % of WT
Mean % WT Binding [39]: 86.1 % of WT
Mean % WT Binding [40]: 97.8 % of WT
Mean % WT Binding [41]: 73.7 % of WT
Mean % WT Binding [42]: 88 % of WT
Mean % WT Binding [43]: 87.4 % of WT
Mean % WT Binding [44]: 94.6 % of WT
Mean % WT Binding [45]: 82.8 % of WT
Mean % WT Binding [46]: 85.6 % of WT
Mean % WT Binding [47]: 86.8 % of WT

B2: Refmab #2 (antibody, V domains shown)
VH: QVQLVQSGAEVKKPGSSVKVSCKASGGTFSDYAISWVRQAPGQGLEWMGRIIPILGVADYAQKFQGRVTITADKSTRTAYMELSSLRSEDTAVYYCARNWADAFDIWGQGTMVTVSS
VL: DIQLTQSPSSLSASVGDRVTITCRASQGISSVLAWYQQKPGKAPKLLIYDASSLESGVPSRFSGSGSGTDFTLTISSLQPEDFATYYCQQFDSSITFGQGTKLEIK
notes: The alanine scan used IgG or Fab
Mean % WT Binding [1]: 106 % of WT
Mean % WT Binding [2]: 99.4 % of WT
Mean % WT Binding [3]: 119 % of WT
Mean % WT Binding [4]: 99.5 % of WT
Mean % WT Binding [5]: 113 % of WT
Mean % WT Binding [6]: 111 % of WT
Mean % WT Binding [7]: 112 % of WT
Mean % WT Binding [8]: 108 % of WT
Mean % WT Binding [9]: 111 % of WT
Mean % WT Binding [10]: 116 % of WT
Mean % WT Binding [11]: 111 % of WT
Mean % WT Binding [12]: 100 % of WT
Mean % WT Binding [13]: 117 % of WT
Mean % WT Binding [14]: 110 % of WT
Mean % WT Binding [15]: 117 % of WT
Mean % WT Binding [16]: 85.9 % of WT
Mean % WT Binding [17]: 88.1 % of WT
Mean % WT Binding [18]: 106 % of WT
Mean % WT Binding [19]: 109 % of WT
Mean % WT Binding [20]: 94.4 % of WT
Mean % WT Binding [21]: 118 % of WT
Mean % WT Binding [22]: 119 % of WT
Mean % WT Binding [23]: 117 % of WT
Mean % WT Binding [24]: 115 % of WT
Mean % WT Binding [25]: 110 % of WT
Mean % WT Binding [26]: 102 % of WT
Mean % WT Binding [27]: 119 % of WT
Mean % WT Binding [28]: 91.6 % of WT
Mean % WT Binding [29]: 102 % of WT
Mean % WT Binding [30]: 108 % of WT
Mean % WT Binding [31]: 109 % of WT
Mean % WT Binding [32]: 111 % of WT
Mean % WT Binding [33]: 117 % of WT
Mean % WT Binding [34]: 116 % of WT
Mean % WT Binding [35]: 106 % of WT
Mean % WT Binding [36]: 104 % of WT
Mean % WT Binding [37]: 107 % of WT
Mean % WT Binding [38]: 109 % of WT
Mean % WT Binding [39]: 105 % of WT
Mean % WT Binding [40]: 102 % of WT
Mean % WT Binding [41]: 101 % of WT
Mean % WT Binding [42]: 122 % of WT
Mean % WT Binding [43]: 91.3 % of WT
Mean % WT Binding [44]: 106 % of WT
Mean % WT Binding [45]: 117 % of WT
Mean % WT Binding [46]: 109 % of WT
Mean % WT Binding [47]: 116 % of WT
